{"source": "patent US20090226422", "about": "“Chemical Inhibitors of Inhibitors of Differentiation” (published 2009)", "binders": {"B1": {"name": "MCK E-box oligonucleotide (dsDNA)", "DNA 1": "TTGATCCCCCCAACACCTGCTGCCTGAAGCT", "DNA 2": "AGCTTCAGGCAGCAGGTGTTGGGGGGATCAA"}}, "key": {"E47 (TCF3)": {"target": "T1, E47 (TCF3) (Homo sapiens, UniProt P15923-2 P15923-2:1-651)", "T1 sequence": "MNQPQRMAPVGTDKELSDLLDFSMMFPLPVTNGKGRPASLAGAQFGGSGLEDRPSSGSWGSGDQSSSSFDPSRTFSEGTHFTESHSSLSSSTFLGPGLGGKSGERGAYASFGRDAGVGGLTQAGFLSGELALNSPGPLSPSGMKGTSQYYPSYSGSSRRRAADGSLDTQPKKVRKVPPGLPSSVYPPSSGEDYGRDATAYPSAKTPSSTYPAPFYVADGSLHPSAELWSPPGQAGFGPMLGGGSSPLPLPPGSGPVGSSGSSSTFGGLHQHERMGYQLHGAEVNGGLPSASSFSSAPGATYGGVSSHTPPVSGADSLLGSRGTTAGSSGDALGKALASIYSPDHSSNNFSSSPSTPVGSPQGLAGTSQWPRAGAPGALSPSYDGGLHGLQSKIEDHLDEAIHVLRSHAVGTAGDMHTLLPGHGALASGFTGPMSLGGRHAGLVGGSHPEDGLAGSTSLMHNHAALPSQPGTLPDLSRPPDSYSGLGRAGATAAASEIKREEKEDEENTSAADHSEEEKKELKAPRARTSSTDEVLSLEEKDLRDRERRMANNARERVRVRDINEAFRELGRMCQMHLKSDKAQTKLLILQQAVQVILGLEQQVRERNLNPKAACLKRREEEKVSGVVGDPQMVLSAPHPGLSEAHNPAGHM", "assay": "EMSA; 5% non-denaturing PAGE, 30 min incubation; E47 homodimer shifts the probe", "details": "tags: recombinant human E47; chain copies: 2 (homodimer, stated); label: 32P", "method": "(§1) Gel shift assays were performed using the 376 small molecules identified in the in silico drug screen and peptide synthesis. The identified compounds were then dissolved in 5% DMSO to a concentration of […] and reacted in binding mixtures that contained E47, Id1 and Mck. As controls, recombinant human E47 was used in a standard binding reaction that contained ³²P labeled MCK double stranded oligonucleotides containing consensus E-Box response element (MCK-5′ TTGATCCCCCCAACACCTGCTGCCTGAAGCT (SEQ ID NO. 1)) and 100 ng of Id1 was added to a standard binding reaction using E47 and p32 labeled MCK. After 30 minutes of incubation, the reaction mixtures were resolved on a 5% non-denaturing polyacrylamide gel and autoradiographed."}, "E47 + Id1": {"target": "T2, E47 + Id1 (Homo sapiens, UniProt P15923-2;P41134 P15923-2:1-651,P41134:1-155)", "T2 sequence 1": "T1 sequence", "T2 sequence 2": "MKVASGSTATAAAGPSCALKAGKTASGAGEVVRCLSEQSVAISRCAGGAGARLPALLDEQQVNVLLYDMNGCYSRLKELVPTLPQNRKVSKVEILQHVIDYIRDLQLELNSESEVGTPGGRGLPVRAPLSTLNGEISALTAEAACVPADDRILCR", "assay": "EMSA; Id1 (100 ng) added to E47 prevents E47 binding to MCK; binding restored by small-molecule Id inhibitors (100 uM, 5% DMSO)", "details": "tags: recombinant human E47 mixed with recombinant human Id1 (100 ng); label: 32P", "method": "as §1"}}, "data": [{"binder": "B1", "values": [{"measurement": "binding result", "setting": "E47 (TCF3)", "value": "binds"}, {"measurement": "binding result", "setting": "E47 + Id1", "value": "no binding"}]}]}
